Measurements reported in patent US20260062463A1 (KANGYUAN BIOMEDICAL TECH DALIAN, published 2026).

Columns and labels:
AAV8 = biological target: T1, AAV8 (adeno-associated virus 8, Assembled 60-mer capsid of VP1/VP2/VP3 (nested products of one cap gene), amine-coupled to a CM5 chip; the letters give one VP1 subunit only.); assay: SPR, AAV amine-coupled to CM5 chip
T1 construct: also called adeno-associated virus serotype 8
T1 chain: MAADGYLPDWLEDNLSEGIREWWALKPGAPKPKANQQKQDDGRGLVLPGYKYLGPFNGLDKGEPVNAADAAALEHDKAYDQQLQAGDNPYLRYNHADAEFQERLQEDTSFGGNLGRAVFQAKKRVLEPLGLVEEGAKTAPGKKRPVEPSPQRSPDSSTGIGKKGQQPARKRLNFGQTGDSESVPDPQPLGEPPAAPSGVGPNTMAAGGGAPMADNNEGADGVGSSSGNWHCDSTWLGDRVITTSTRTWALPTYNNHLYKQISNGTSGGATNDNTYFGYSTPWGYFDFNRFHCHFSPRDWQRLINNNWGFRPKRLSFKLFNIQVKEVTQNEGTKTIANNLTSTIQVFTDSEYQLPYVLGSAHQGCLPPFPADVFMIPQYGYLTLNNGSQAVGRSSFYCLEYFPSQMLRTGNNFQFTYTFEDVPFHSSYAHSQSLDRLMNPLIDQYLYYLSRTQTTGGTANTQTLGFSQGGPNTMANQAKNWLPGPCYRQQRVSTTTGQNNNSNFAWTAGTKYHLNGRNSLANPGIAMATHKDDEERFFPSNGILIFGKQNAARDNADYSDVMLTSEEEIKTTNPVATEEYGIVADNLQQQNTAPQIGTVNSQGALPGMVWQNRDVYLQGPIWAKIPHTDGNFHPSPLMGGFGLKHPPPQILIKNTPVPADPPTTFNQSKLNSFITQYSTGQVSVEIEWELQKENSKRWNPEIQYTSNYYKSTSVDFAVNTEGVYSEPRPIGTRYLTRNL

AAV5 = biological target: T2, AAV5 (adeno-associated virus 5, Assembled 60-mer capsid of VP1/VP2/VP3 (nested products of one cap gene), amine-coupled to a CM5 chip; the letters give one VP1 subunit only.); assay: SPR, AAV amine-coupled to CM5 chip
T2 construct: also called adeno-associated virus serotype 5

B1: A4-D8 (bispecific antibody)
chain: VQLQESGGGLVQPGGSLRLSCAASGSRFSLNTMGWYRQAPGKQRELVATVTRGGSTNYADSVKGRFTISRDNAKNTVYLQMNSLRPEDTAVYYCHVDELRESGWTTSNLWGQGTQVTVSSGGGGSGGGGSGGGGSVQLQESGGGLVQPGGSLRLSCAASGSRFSLNTMGWYRQAPGKQRELVATVTRGGSTNYADFVKGRFTISRDNAKNTVYLQMNSLRPEDTAVYYCHVDELRESGWTTSNLWGQGTQVTVSSGGGGSGGGGSGGGGSVQLQESGGGLVHSGGSLRLSCAASGSMFSLNTMGWYRQAPGKQRELVATITRGGGTSYADSVKGRFTISRDNAKNTVYLQMNSLRPEDTAVYYCHVDELRQSSWTTSNLWGQGTQVTVSSGGGGSGGGGSGGGGSVQLQESGGGLVQPGGSLRLSCAASGSRFSLNTMGWYRQAPGKQRELVATVTRGGSTNYADFVKGRFTISRDNAKNTVYLQMNSLRPEDTAVYYCHVDELRESGWTTSNLWGQGTQVTVSS
- Kd (AAV8): 0.228 nM
- koff (AAV8): 1.1e-05 s⁻¹
- kon (AAV8): 48200 M⁻¹ s⁻¹

B2: A4-D11 (other)
chain: VQLQESGGGLVQPGGSLRLSCAASGRGFSINTMGWYRQAPGKQRELVAAVTRGGTTNYADSVKGRFTISRDNAKNTVYLQMNSLRPEDTAVYYCHVDEVRQSSWTTSNLWGQGTQVTVSSGGGGSGGGGSGGGGSVQLQESGGGLVQPGGSLRLSCAASGSIFSINTMGWYRQAPGKQRELVAAVTRGGSTNYADSVKGRFTISRDNAKNTVYLQMNSLRPEDTAVYYCHVDEVRQSSWTTSNLWGQGTQVTVSSGGGGSGGGGSGGGGSVQLQESGGGLVQPGGSLRLSCAASGSIFIINTMGWYRRAPGKQRELVAAVTRGGSTNYADSVKGRFTISRDNAKNTVYLQMNSLRPEDTAVYYCHVDEVRQSSWTTSNLWGQGTQVTVSSGGGGSGGGGSGGGGSVQLQESGGGLVQPGGSLRLSCAASGSSFVINTMGWYRQAPGKQRELVAAVTRGGSTNYADSVKGRFTISRDNAKNTVYLQMNSLRPEDTAVYYCHVDEVRQSSWTTSNLWGQGTQVTVSS
- Kd (AAV8): 0.319 nM
- koff (AAV8): 1.5e-05 s⁻¹
- kon (AAV8): 47000 M⁻¹ s⁻¹

B3: A4-D9 (bispecific antibody)
chain: VQLQESGGGLVHSGGSLRLSCAASGSMFSLNTMGWYRQAPGKQRELVATITRGGGTSYADSVKGRFTISRDNAKNTVYLQMNSLRPEDTAVYYCHVDELRQSSWTTSNLWGQGTQVTVSSGGGGSGGGGSGGGGSVQLQESGGGLVQPGGSLRLSCAASGSRFSLNTMGWYRQAPGKQRELVATVTRGGSTNYADFVKGRFTISRDNAKNTVYLQMNSLRPEDTAVYYCHVDELRESGWTTSNLWGQGTQVTVSSGGGGSGGGGSGGGGSVQLQESGGGLVQPGGSLRLSCAASGSRFSLNTMGWYRQAPGKQRELVATVTRGGSTNYADFVKGRFTISRDNAKNTVYLQMNSLRPEDTAVYYCHVDELRESGWTTSNLWGQGTQVTVSSGGGGSGGGGSGGGGSVQLQESGGGLVQTGGSLRLSCAASGRAFSLNTMGWYRQAPGKWRELVATVTRGGSTNYAGSVKGRFTISRDNAKNTVYLQMNNLRPEDTAVYYCHVDEVRESSWTTSNLWGQGTQVTVSS
- Kd (AAV8): 0.318 nM
- koff (AAV8): 9.9e-06 s⁻¹
- kon (AAV8): 31100 M⁻¹ s⁻¹

B4: A4-D6 (bispecific antibody)
chain: VQLQESGGGLVQTGGSLRLSCAASGRAFSLNTMGWYRQAPGKWRELVATVTRGGSTNYAGSVKGRFTISRDNAKNTVYLQMNNLRPEDTAVYYCHVDEVRESSWTTSNLWGQGTQVTVSSGGGGSGGGGSGGGGSVQLQESGGGLVQTGGSLRLSCAASGRAFSLNTMGWYRQAPGKWRELVATVTRGGSTNYAGSVKGRFTISRDNAKNTVYLQMNNLRPEDTAVYYCHVDEVRESSWTTSNLWGQGTQVTVSSGGGGSGGGGSGGGGSVQLQESGGGLVQPGGSLRLSCAASGSIFTINSMGWYRQAPGKWRELVATVTRGGNTNYANSVKGRFTISRDNAKNTVYLQMNTLRPEDTAVYYCHLDEVRDSSWTTSNLWGQGTQVTVSSGGGGSGGGGSGGGGSVQLQESGGGLVQPGGSLRLSCAASGSIFSINSMGWYRQAPGKWRELVATVTRGGSTNYANSVKGRFTISRDNAKNTVYLQMNTLRPEDTAVYYCHLDEVRDSSWTTSNLWGQGTQVTVSS
- Kd (AAV8): 1.02 nM
- koff (AAV8): 1.63e-05 s⁻¹
- kon (AAV8): 16000 M⁻¹ s⁻¹

B5: A4-D1 (VHH)
chain: VQLQESGGGLAQAGGSLRLSCAASGRGFSINTMGWYRQAPGKQRELVAAVTRGGTTNYADSVKGRFTISRDNAKNTVYLQMNSLRPEDTAVYYCHVDEVRQSSWTTSNLWGQGTQVTVSSGGGGSGGGGSGGGGSVQLQESGGGLAQAGGSLRLSCAASGRGFSINTMGWYRQAPGKQRELVAAVTRGGTTNYADSVKGRFTISRDNAKNTVYLQMNSLRPEDTAVYYCHVDEVRQSSWTTSNLWGQGTQVTVSSGGGGSGGGGSGGGGSVQLQESGGGLAQAGGSLRLSCAASGRGFSINTMGWYRQAPGKQRELVAAVTRGGTTNYADSVKGRFTISRDNAKNTVYLQMNSLRPEDTAVYYCHVDEVRQSSWTTSNLWGQGTQVTVSSGGGGSGGGGSGGGGSVQLQESGGGLAQAGGSLRLSCAASGRGFSINTMGWYRQAPGKQRELVAAVTRGGTTNYADSVKGRFTISRDNAKNTVYLQMNSLRPEDTAVYYCHVDEVRQSSWTTSNLWGQGTQVTVSS
- Kd (AAV5): 0.0576 nM
- koff (AAV5): 2.2e-06 s⁻¹
- kon (AAV5): 38200 M⁻¹ s⁻¹

B6: A4-D3 (VHH)
chain: VQLQESGGGLAQAGGSLRLSCAASGRGFSINTMGWYRQAPGKQRELVAAVTRGGTTNYADSVKGRFTISRDNAKNTVYLQMNSLRPEDTAVYYCHVDEVRQSSWTTSNLWGQGTQVTVSSGGGGSGGGGSGGGGSVQLQESGGGLAQAGGSLRLSCAASGRGFSINTMGWYRQAPGKQRELVAAVTRGGTTNYADSVKGRFTISRDNAKNTVYLQMNSLRPEDTAVYYCHVDEVRQSSWTTSNLWGQGTQVTVSSGGGGSGGGGSGGGGSVQLQESGGGLAQAGGSLRLSCAASGRGFSINTMGWYRQAPGKQRELVAAVTRGGTTNYADSVKGRFTISRDNAKNTVYLQMNSLRPEDTAVYYCHVDEVRQSSWTTSNLWGQGTQVTVSSGGGGSGGGGSGGGGSVQLQESGGGLVQPGGSLRLSCAASGRGFSINTMGWYRQAPGKQRELVAAVTRGGTTNYADSVKGRFTISRDNAKNTVYLQMNSLRPEDTAVYYCHVDEVRQSSWTTSNLWGQGTQVTVSS
- Kd (AAV5): 0.209 nM
- koff (AAV5): 3.6e-06 s⁻¹
- kon (AAV5): 17300 M⁻¹ s⁻¹

B7: A4-D7 (bispecific antibody)
chain: VQLQESGGGLVQTGGSLRLSCAASGRAFSLNTMGWYRQAPGKWRELVATVTRGGSTNYAGSVKGRFTISRDNAKNTVYLQMNNLRPEDTAVYYCHVDEVRESSWTTSNLWGQGTQVTVSSGGGGSGGGGSGGGGSVQLQESGGGLVQPGGSLRLSCAASGSIFTINSMGWYRQAPGKWRELVATVTRGGNTNYANSVKGRFTISRDNAKNTVYLQMNTLRPEDTAVYYCHLDEVRDSSWTTSNLWGQGTQVTVSSGGGGSGGGGSGGGGSVQLQESGGGLVQPGGSLRLSCAASGSIFSINSMGWYRQAPGKWRELVATVTRGGSTNYANSVKGRFTISRDNAKNTVYLQMNTLRPEDTAVYYCHLDEVRDSSWTTSNLWGQGTQVTVSSGGGGSGGGGSGGGGSVQLQESGGGLVQTGGSLRLSCAASGRAFSLNTMGWYRQAPGKWRELVATVTRGGSTNYAGSVKGRFTISRDNAKNTVYLQMNNLRPEDTAVYYCHVDEVRESSWTTSNLWGQGTQVTVSS
- Kd (AAV8): 1.41 nM
- koff (AAV8): 1.79e-05 s⁻¹
- kon (AAV8): 12700 M⁻¹ s⁻¹
